According to article PMC4944158:

Target: GST-RabGAP5 C-terminal aa578-760
Assay: pull-down; GST fusion on Glutathione Sepharose beads incubated with supernatants of homogenised synaptosomes of wt and σ1B −/− mouse brains, 4 hours at RT, PBS; Western blot

Substance: AP-1/σ1A complexes of σ1B −/− mice (from UniProt P22892 1-822; O35643 1-943; P35585 1-423; P61967 1-158)
- percent more AP-1 isolated than from wt extracts: 30%
